Measurements published in publication PMC10938605 (Science Advances, 2022).

T1: recombinant CYLD WT (GST tag cleaved) (human, UniProt Q9NQC7 1-956)
T1 sequence (looked up): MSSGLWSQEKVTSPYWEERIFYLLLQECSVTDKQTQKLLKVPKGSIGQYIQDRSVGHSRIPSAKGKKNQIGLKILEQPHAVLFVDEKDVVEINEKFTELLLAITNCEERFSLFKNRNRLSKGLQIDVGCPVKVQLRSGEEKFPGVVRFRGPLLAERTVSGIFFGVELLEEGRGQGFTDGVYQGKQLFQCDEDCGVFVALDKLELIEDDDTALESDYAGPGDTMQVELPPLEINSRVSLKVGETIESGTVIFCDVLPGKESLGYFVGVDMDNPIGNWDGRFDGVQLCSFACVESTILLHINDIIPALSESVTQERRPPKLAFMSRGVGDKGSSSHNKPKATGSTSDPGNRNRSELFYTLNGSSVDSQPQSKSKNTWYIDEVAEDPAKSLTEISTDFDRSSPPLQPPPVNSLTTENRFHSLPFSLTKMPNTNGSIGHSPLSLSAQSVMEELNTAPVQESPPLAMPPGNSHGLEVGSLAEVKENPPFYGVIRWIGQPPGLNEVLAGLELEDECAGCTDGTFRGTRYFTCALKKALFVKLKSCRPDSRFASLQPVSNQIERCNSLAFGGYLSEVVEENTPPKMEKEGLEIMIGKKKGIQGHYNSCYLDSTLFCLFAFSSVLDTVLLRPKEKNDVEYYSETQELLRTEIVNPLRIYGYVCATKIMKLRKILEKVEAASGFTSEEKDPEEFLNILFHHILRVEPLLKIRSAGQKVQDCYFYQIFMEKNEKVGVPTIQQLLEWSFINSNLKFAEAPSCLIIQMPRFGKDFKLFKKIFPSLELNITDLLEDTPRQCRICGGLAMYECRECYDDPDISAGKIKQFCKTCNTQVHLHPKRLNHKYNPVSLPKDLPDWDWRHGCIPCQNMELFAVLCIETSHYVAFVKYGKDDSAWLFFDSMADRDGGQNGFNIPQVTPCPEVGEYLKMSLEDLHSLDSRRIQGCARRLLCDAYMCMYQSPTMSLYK

T2: purified recombinant GST-tagged CYLD (human, UniProt Q9NQC7 1-956)
T2 sequence (looked up): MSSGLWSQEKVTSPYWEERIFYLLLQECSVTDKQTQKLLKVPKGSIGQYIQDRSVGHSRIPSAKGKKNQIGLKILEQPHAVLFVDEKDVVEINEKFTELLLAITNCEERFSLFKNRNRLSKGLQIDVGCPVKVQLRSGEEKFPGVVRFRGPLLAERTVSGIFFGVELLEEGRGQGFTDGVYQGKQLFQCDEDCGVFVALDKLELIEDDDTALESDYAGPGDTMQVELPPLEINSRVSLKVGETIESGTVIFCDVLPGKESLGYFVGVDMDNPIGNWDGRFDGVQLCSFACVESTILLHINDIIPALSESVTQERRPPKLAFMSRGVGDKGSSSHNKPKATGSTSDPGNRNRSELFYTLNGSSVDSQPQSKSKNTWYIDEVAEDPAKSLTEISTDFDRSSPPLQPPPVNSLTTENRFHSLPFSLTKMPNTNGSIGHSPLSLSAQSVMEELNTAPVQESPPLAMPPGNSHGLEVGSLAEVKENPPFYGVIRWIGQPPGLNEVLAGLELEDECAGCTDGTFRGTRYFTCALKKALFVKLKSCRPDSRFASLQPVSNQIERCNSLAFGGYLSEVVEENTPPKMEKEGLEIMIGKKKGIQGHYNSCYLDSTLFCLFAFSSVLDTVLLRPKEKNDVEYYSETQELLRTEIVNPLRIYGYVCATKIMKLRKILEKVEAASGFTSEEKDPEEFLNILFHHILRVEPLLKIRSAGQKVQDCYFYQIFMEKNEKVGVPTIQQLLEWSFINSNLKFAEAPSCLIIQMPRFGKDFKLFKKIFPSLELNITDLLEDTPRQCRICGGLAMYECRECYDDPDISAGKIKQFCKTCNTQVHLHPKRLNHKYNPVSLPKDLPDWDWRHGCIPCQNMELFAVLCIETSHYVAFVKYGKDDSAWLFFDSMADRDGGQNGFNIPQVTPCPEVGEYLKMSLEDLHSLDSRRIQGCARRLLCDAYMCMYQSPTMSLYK


Assays:
[1] = target: T1, recombinant CYLD WT (GST tag cleaved); assay: pull-down
[2] = target: T2, purified recombinant GST-tagged CYLD; assay: pull-down

| binding result [1] | binding result [2] | Binder |
| --- | --- | --- |
| binds |  | purified recombinant GST-tagged PARIS (natural protein) not shown |
|  | binds | recombinant PARIS (prey of the reciprocal GST pull-down) (natural protein) not shown |
